Experimental findings from PMC5667550 (SLAS discovery : advancing life sciences R & D, 2017) are described below.

This test has as its target Klebsiella pneumonia PriA protein fused to an N-terminal 6xHis purification tag (Klebsiella pneumonia, UniProt A6TGC5 1-731). In words: AlphaScreen or HTRF. (In general: Bead proximity is the source of the signal in Alpha formats.)

Ends that are not written are not given here. * marks the point of attachment. Biotin = O=C1N[C@H]2[C@H](CS[C@H]2CCCCC(=O)*)N1

Sequence of Klebsiella pneumonia PriA protein fused to an N-terminal 6xHis purification tag (A6TGC5 whole entry, the tested form may be a part): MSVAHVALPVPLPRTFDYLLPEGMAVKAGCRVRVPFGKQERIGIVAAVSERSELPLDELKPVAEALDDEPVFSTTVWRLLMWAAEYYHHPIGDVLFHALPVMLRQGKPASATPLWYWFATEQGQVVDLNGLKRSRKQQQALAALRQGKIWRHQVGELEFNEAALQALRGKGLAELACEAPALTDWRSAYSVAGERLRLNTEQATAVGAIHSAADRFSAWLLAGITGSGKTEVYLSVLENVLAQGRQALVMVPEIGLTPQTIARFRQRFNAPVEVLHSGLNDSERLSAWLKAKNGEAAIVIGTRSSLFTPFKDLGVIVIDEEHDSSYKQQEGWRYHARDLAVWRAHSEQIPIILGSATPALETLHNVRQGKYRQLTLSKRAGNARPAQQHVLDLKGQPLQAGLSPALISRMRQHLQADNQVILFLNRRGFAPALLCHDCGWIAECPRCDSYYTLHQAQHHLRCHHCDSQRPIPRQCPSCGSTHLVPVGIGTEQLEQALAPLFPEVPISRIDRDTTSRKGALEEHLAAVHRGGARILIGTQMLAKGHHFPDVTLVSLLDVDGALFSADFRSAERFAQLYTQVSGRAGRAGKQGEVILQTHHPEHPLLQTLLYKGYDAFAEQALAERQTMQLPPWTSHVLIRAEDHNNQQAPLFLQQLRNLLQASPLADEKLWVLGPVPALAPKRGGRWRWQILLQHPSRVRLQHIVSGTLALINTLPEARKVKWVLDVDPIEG

B1: N-terminally biotinylated SSBct (peptide)
peptide: Biotin-WMDFDDDIPF
Turning to B1, the binding result is listed as “binds”.
